The values that follow come from US20110117099A1.

This experiment concerns the target type I Collagen (Sigma). Description: solid phase assay, biotinylated rBSdrF titrated on collagen-coated wells.

In the case of “purified recombinant B domain of SdrF (rBSdrF), N-terminal His tag (from UniProt Q9KI14 678-1128)”, the concentration at which maximum binding occurs came out at 20 ng/mL.
